Article PMC8894971, “ENB1 encodes a cellulose synthase 5 that directs synthesis of cell wall ingrowths in maize basal endosperm transfer cells”

T1: MRP1 (His-TF-MRP1) (Zea mays, UniProt K7V5I7 1-241)
T1 sequence: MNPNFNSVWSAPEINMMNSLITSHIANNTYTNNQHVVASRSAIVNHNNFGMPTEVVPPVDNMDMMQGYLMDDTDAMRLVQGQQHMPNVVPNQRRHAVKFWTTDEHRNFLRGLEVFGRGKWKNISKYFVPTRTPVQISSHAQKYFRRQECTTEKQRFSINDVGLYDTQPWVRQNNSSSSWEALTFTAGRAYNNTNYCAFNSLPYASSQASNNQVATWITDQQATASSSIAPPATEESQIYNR

B1: ENB1 promoter Mu probe (dsDNA)
DNA 1: CTACTTATGAGCGACAGAGCGATGTGACTA
DNA 2: TAGTCACATCGCTCTGTCGCTCATAAGTAG
B2: ENB1 promoter WT probe (dsDNA)
DNA 1: CTACTTATTATCTACATATCTATGTGACTA
DNA 2: TAGTCACATAGATATGTAGATAATAAGTAG

Key:
MRP1 (His-TF-MRP1) [1] = molecular target: T1, MRP1 (His-TF-MRP1); experiment: EMSA; labeled Mu probe; no shifted band; LightShift EMSA kit standard protocol, ~200 ng protein, 5 ng biotin probe, 6% native polyacrylamide gel; buffer, salt, pH and temperature not stated; settings: protein: recombinant; tags: N-terminal His-TF (trigger factor, pCold-TF); blunt (duplex implied)
MRP1 (His-TF-MRP1) [2] = molecular target: T1, MRP1 (His-TF-MRP1); experiment: EMSA; LightShift EMSA kit standard protocol, ~200 ng protein, 5 ng biotin probe, 6% native polyacrylamide gel; buffer, salt, pH and temperature not stated; settings: protein: recombinant; tags: N-terminal His-TF (trigger factor, pCold-TF); blunt (duplex implied)

Binder | binding result (MRP1 (His-TF-MRP1) [1]) | binding result (MRP1 (His-TF-MRP1) [2])
B1 | no binding | –
B2 | – | binds
